Experimental data taken from US20220211860A1, “PEPTIDE DERIVATIVES AND CONJUGATES THEREOF FOR TREATING CANCER” (priority 2019, published 2022).
Several values for one entry are separate records, joined by “and”; a condition that tells them apart may be missing. Identical values can stand only once.

Experiments:
LHRH-R = molecular target: T1, LHRH-R (Homo sapiens, UniProt P30968); test: Duolink proximity ligation assay (PLA) in MDA-MB-231; format: binding
T1 construct: endogenous in cells; host or cells: MDA-MB-231
T1 sequence (P30968 1-328): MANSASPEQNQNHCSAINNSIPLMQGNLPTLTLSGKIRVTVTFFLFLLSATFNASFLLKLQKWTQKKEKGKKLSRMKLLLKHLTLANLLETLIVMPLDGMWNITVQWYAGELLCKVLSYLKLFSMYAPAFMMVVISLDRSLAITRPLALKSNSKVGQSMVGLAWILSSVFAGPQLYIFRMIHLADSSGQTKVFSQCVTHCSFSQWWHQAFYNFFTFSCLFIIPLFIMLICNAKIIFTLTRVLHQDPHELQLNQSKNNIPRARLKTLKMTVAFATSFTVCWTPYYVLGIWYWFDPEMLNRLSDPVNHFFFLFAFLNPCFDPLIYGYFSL
Description: FIG. 6: Proximity ligation assay was used to show the protein-protein interaction between LHRH-R and LHRH in MDA-MB-231 (TNBC cell model) treated with LD5-me-vc-PABC-MMAE (1 μM) compared to negative control (PBS). Stained nucleus (DAPI blue) and PLA signal (TexasRed) were detected by LEICA SPE2 confocal LSM.
The binding affinity of the LD5-me-vc-PABC-MMAE conjugate to LHRH receptors was investigated by DuoLink assay.
Proximity ligation assay (PLA) was used to determine the interaction between LHRH-R and LHRH in LD5-mc-vc-PABC-MMAE treated cells. Duolink® Proximity Ligation Assay (PLA) allows in situ detection of endogenous proteins, protein modifications, and protein interactions with high specificity and sensitivity. Protein targets can be readily detected and localized with single molecule resolution in unmodified cells and tissues. Typically, two primary antibodies raised in different species are used to detect two unique protein targets. PLA reagents were added to the fixed MDA-MB-231 cells after incubating these cells with the primary antibody specific for LHRH-R and LHRH.

MDA-MB-231 = test: In vitro uptake in TNBC cells versus normal breast cells (confocal LSM); format: cell-based, human; settings: 1 μM, 18 h; MDA-MB-231 compared to normal breast cells (MCF-10A and HMEC)
Description: FIGS. 7A and 7B: In vitro uptake study of LD5-me-vc-PABC-MMAE in TNBC cell line and normal breast cells. (A) MDA-MB-231 as a TNBC cell model, MCF-10A and HMEC as normal breast cells were treated with 1 μM of LD5-me-vc-PABC-MMAE (LM) for 18 h. LM was stained using monoclonal primary antibody specific for LHRH and secondary antibody conjugated with Rhodamine and detected by LEICA SPE2 confocal LSM. (B) The LM signal intensity was measured by Fiji J software in normal breast cells (HMEC and MCF-10A) and TNBC cell model (MDA-MB-231). […] The signal intensity in these cell lines were assessed by one-way ANOVA followed by Tukey's multiple comparisons test (****p<0.0001). Error bars are standard deviations (STDV), n=8 (3 independent repeats).
The uptake of LD5-me-vc-PABC-MMAE by TNBC cells was examined using the TNBC cell line (MDA-MB-231) which overexpresses LHRH-R. The uptake was compared with normal breast cells (LHRH-R negative control). LD5-me-vc-PABC-MMAE was incubated with […] for 18 h, and intracellular uptake of the conjugate was monitored using confocal LSM (FIG. 7A).
This was supported by quantitative comparisons of the intracellular uptake of LD5-mc-vc-PABC-MMAE in LHRH-R positive and negative cells (FIG. 7B).

[1] = Phase II: repeat-dose MTD in mice; format: in vivo; settings: mouse, in vivo; female NOD/SCID mice, IV; MTD not reached at 10 mg/kg
Description: (§1) LD-5-(mc-vc-PABC)-MMAE (10 mg/kg; determined by the results by Phase I) was administered IV once weekly on days 1 and 8 to groups of 3 female NOD/SCID mice (23±3 g). […] Body weights were recorded pre-dose and on days 1, 4, 8, 12 and 15. The animals were observed and mortality noted daily after first compound administration for 15 days. Gross necropsy was performed on all animals without tissue collection.
(§2) Therefore, the MTD was not reached at this dose. With the corresponding ADCs bearing MMAE the MTD has been considerably lower.

female NOD/SCID mice [2] = test: Phase II: repeat-dose MTD in mice; format: in vivo; settings: for Body Weight: listed as LHRHD-(mc-vc-PABC)-MMAE, 10 mg/kg
Description: as §1, §2

female NOD/SCID mice [3] = test: Phase I: single-dose MTD in mice; format: in vivo; settings: IV 10 mg/kg, 72 hr, individual animals, listed as LHRHD-(mc-vc-PABC)-MMAE

CCNC(=O)[C@@H]1CCCN1C(=O)[C@H](CCCNC(=N)N)NC(=O)[C@H](CC(C)C)NC(=O)[C@@H](CCCCNC1CC(=O)N(CCCCCC(=O)N[C@H](C(=O)N[C@@H](CCCNC(N)=O)C(=O)Nc2ccc(COC(=O)N(C)[C@H](C(=O)N[C@H](C(=O)N(C)[C@@H]([C@@H](C)CC)[C@@H](CC(=O)N3CCC[C@H]3[C@H](OC)[C@@H](C)C(=O)N[C@H](C)[C@@H](O)c3ccccc3)OC)C(C)C)C(C)C)cc2)C(C)C)C1=O)NC(=O)[C@H](Cc1ccc(O)cc1)NC(=O)[C@H](CO)NC(=O)[C@H](Cc1c[nH]c2ccccc12)NC(=O)[C@H](Cc1c[nH]cn1)NC(=O)[C@@H]1CCC(=O)N1 (stereo partly drawn) [LD5-mc-vc-PABC-MMAE]
binding affinity to LHRH receptors (DuoLink assay) (LHRH-R; MDA-MB-231, 1 μM): high binding affinity
interaction between LHRH-R and LHRH (PLA signal) (LHRH-R; fixed MDA-MB-231 cells, qualitative): confirmed interactions between LHRH-R and its ligand
intracellular uptake (MDA-MB-231): significantly higher uptake
MTD [1]: > 10 mg/kg
adverse effects (acute toxic symptoms, autonomic effects) (female NOD/SCID mice [2]; 10 mg/kg IV, after first and second administrations on Day 1 and 8): No marked adverse effects
Mortality (death/test) (female NOD/SCID mice [2]; IV 10 mg/kg on days 1 and 8, Day 1): 0/3
Body Weight (female NOD/SCID mice [2]; IV 10 mg/kg on days 1 and 8, Day 1, individual animals): 22 g (2×) and 21 g
Mortality (death/test) (female NOD/SCID mice [2]; IV 10 mg/kg on days 1 and 8, Day 2): 0/3
Mortality (death/test) (female NOD/SCID mice [2]; IV 10 mg/kg on days 1 and 8, Day 3): 0/3
Mortality (death/test) (female NOD/SCID mice [2]; IV 10 mg/kg on days 1 and 8, Day 4): 0/3
Body Weight (female NOD/SCID mice [2]; IV 10 mg/kg on days 1 and 8, Day 4, individual animals): 23 g (2×) and 22 g
Mortality (death/test) (female NOD/SCID mice [2]; IV 10 mg/kg on days 1 and 8, Day 5): 0/3
Mortality (death/test) (female NOD/SCID mice [2]; IV 10 mg/kg on days 1 and 8, Day 6): 0/3
Mortality (death/test) (female NOD/SCID mice [2]; IV 10 mg/kg on days 1 and 8, Day 7): 0/3
Mortality (death/test) (female NOD/SCID mice [2]; IV 10 mg/kg on days 1 and 8, Day 8): 0/3
Body Weight (female NOD/SCID mice [2]; IV 10 mg/kg on days 1 and 8, Day 8, individual animals): 23 g (2×) and 22 g
Mortality (death/test) (female NOD/SCID mice [2]; IV 10 mg/kg on days 1 and 8, Day 9): 0/3
Mortality (death/test) (female NOD/SCID mice [2]; IV 10 mg/kg on days 1 and 8, Day 10): 0/3
Mortality (death/test) (female NOD/SCID mice [2]; IV 10 mg/kg on days 1 and 8, Day 11): 0/3
Mortality (death/test) (female NOD/SCID mice [2]; IV 10 mg/kg on days 1 and 8, Day 12): 0/3
Body Weight (female NOD/SCID mice [2]; IV 10 mg/kg on days 1 and 8, Day 12, individual animals): 24 g (2×) and 23 g
Mortality (death/test) (female NOD/SCID mice [2]; IV 10 mg/kg on days 1 and 8, Day 13): 0/3
Mortality (death/test) (female NOD/SCID mice [2]; IV 10 mg/kg on days 1 and 8, Day 14): 0/3
Mortality (death/test) (female NOD/SCID mice [2]; IV 10 mg/kg on days 1 and 8, Day 15): 0/3
Body Weight (female NOD/SCID mice [2]; IV 10 mg/kg on days 1 and 8, Day 15, individual animals): 25 g (2×) and 24 g
gross necropsy (female NOD/SCID mice [2]; both phases): No abnormality was found
Body Weight (female NOD/SCID mice [3]): 21 g and 20 g (2×)
